US20260224761A1, “DUAL LABELLED COMPOUNDS TARGETING THE PROSTATE SPECIFIC MEMBRANE ANTIGEN” (priority 2023, published 2026)
Like-named read-outs stand apart in the source and are kept apart here.

Legend:
[1] = Photophysical characterization (molar extinction coefficient, quantum yield, brightness) in human serum albumin solution; assay type: physicochemical; conditions: for Brightness (HSA): multiplication of molar extinction coefficient and quantum yield
Procedure: (§1) Quantum yield, molar extinction coefficient and serum protein binding experiments were performed according to previously published procedures (Hensbergen A. W. et al., Dyes and Pigments, 2018, 152, 19-28).
Table 1 summarizes the photophysical properties of [^99mTc]PSMA-HSG, [^99mTc]mas3-Cy5(SO3)—EuK and [^99mTc]mas3-(SO3)Cy5(SO3)—EuK and of the different sulfonated Cy5-dyes used for their preparation. […] Because of this latter effect we analyzed the brightness (as multiplication of the molar extinction coefficient and the quantum yield) in humans serum albumin for all three hybrid PSMA agents included in this study (see Table 1). While we indeed see that increasing of the number of sulfonates on the cyanine dye has a positive effect on the brightness all remain within the same order of magnitude.
Because of this latter effect, we analyzed the brightness (as multiplication of the molar extinction coefficient and the quantum yield) in human serum albumin solution for all three hybrid PSMA agents included in this study (see Table 1). While we indeed see that increasing of the number of sulfonates on the cyanine dye has a positive effect on the brightness, all remain within the same order of magnitude.

plasma proteins = assay: Plasma protein binding; assay type: in vitro ADME
Procedure: as §1

[2] = test system: PC3-Pip xenografts in NSG mice; assay: In vivo and ex vivo fluorescence imaging of PC3-Pip xenografts in NSG mice; conditions: for detectable fluorescence signal: 6 h p.i., 0.1 nmol ligand
Procedure: FIG. 3: In vivo (A) and ex vivo (B) fluorescence imaging of PC3-Pip xenografts in NSG mice using PSMA-HSG (upper two rows), the reference Ac-mas3-Cy5(SO3)—EuK (middle two rows) and Ac-mas3-(SO3)Cy5(SO3)—EuK (lower two rows). Conditions were 2 h p.i. using a peptide dose of 1 nmol/mouse and 6 h p.i. using a peptide dose of 0.1 nmol/mouse, respectively (n=1 per condition). In vivo and ex vivo fluorescence imaging of intact tumors was performed using a clinical-grade fluorescence KARL STORZ Endoscope; fluorescence confocal imaging of 2 mm tumor slices (right) was performed using a Leica SP8 WLL microscope.
In vivo fluorescence imaging of PC3-Pip xenografts in NSG mice (2 h p.i. at a ligand dose of 1 nmol and 6 h p.i. at a ligand dose of 0.1 nmol, respectively; n=1 per compound and condition) was performed using a clinical-grade fluorescence laparoscopy set-up (KARL STORZ Endoskope GMBh & Co. KG). Cy5-based tumor imaging was performed using D-light P system and a prototype modified IMAGE 1 S light source with integrated Cy5 filter (both KARL STORZ Endoskope GMBh & Co. KG). Images were recorded using integrated KARL STORZ software and image processing was performed using in-house developed MATLAB software that provided a signal intensity-based representation of the signal-to-background ratio (SBR; Azargoshasb S. et al., Mol. Imaging Biol., 2022, https://doi.org/10.1007/s11307-022-01736-y; de Barros H. A. et al., Eur. Urol., 2022, 82, 97-105).
Fluorescence Confocal Imaging of Excised Tumor Specimens After in vivo imaging tumor specimens (N=1 per tracer) were excised and cut into 2 mm slices. Prior to imaging, slices were placed on a 35-mm culture dish containing a glass insert (MatTek Co.). Fluorescence confocal imaging was then performed using a Leica SP8 WLL microscope (Leica Microsystems). For assessment of tracer uptake Cy5 settings were used; λex=633 nm, λem=650-700 nm. Images were processed using accompanying LASX software (Leica Application Software Suite 4.8).

PSMA [3] = molecular target: T1, PSMA (Homo sapiens, UniProt Q04609); assay: Competitive binding experiments (IC50) using PSMA-expressing LNCaP cells and ([125I]I-BA)EuK as standard radioligand
T1 construct: using PSMA-expressing LNCaP cells and ([^125I]I-BA)EuK as standard radioligand; endogenous in cells; host or cells: LNCaP cells
Procedure: Competitive binding experiments (IC50) were carried out in accordance with an established protocol ([…]. et al., Eur. J. Nuc. Mol. Med. Imaging Res., 2014, 4, 63) using PSMA-expressing LNCaP cells and ([^125I]I-BA)EuK as standard radioligand.

Plasma protein binding = assay type: in vitro ADME; conditions: plasma
Procedure: as §1

[4] = Lipophilicity, modified shake-flask method; assay type: physicochemical
Procedure: The lipophilicity of [^99mTc]PSMA-HSG, [^99mTc]EuK(SO3)Cy5-mas3 and [^99mTc]EuK(SO3)Cy5(SO3)-mas3 was determined via a modified shake-flask method as described ([…]. et al., Eur. J. Nuc. Mol. Med. Imaging Res., 2014, 4, 63).

[5] = Biodistribution in LNCaP xenograft bearing NSG mice; assay type: in vivo; conditions: NSG, mouse, in vivo, iv, 0.1 nmol/animal, total radioactivity, Biodistribution: LNCaP tumor
Procedure: The biodistribution of [^99mTc]PSMA-HSG, [^99mTc]EuK(SO3)Cy5-mas3 and [^99mTc]EuK(SO3)Cy5(SO3)-mas3 was investigated in LNCaP xenograft bearing NSG mice. […] (0.1 nmol-cohort), respectively.
To assess the influence of the different ligand designs of [^99mTc]PSMA-HSG and [^99mTc]mas3-(SO3)Cy5(SO3)—EuK on in vivo PSMA-targeting and general pharmacokinetics, their in vivo biodistribution was investigated in LNCaP xenograft bearing NSG mice in two different experimental settings: • A) at 2 h p.i. using a ligand dose of 1 nmol/animal. These conditions were chosen to allow comparability of the data from this study (Table 3) with previous results in a different tumor model (Hensbergen, A. W. et al., J. Nucl. Med., 2020, 61, 234-241). Here, [^99mTc]mas3-Cy5(SO3)—EuK was additionally included as an internal reference to establish the “missing link” between studies. • B) at 6 h p.i. using a ligand dose of 0.1 nmol/animal (Table 4). The latter settings were adapted to a timeline and dosing with more similarity to the clinical situation (surgery at a later time point, microdosing principle). Of note, however, a ligand amount of 0.1 nmol/mouse (extrapolation: 280 nmol/70 kg patient) still exceeds the potentially applicable clinical dose (48 nmol/70 kg patient for a compound with a molecular weight of −2100 g/mol). Nevertheless, it represents a dose level at which significant competition effects between unlabeled precursor and radioligand for PSMA binding sites in tumor tissue are not probable (Eder A. C. et al., J. Nucl. Med., 2021, 62, 1461-1467; Kalidindi T. M. et al., Eur. J. Nucl. Med. Mol. Imaging, 2021, 48, 2642-2651).

[6] = test system: LNCaP xenograft bearing male NSG mice; assay: Small animal SPECT/CT blocking study with 2-PMPA co-injection; assay type: in vivo; conditions: 2-4 h p.i.; 1 nmol; co-injection of 1 μmol 2-PMPA
Procedure: FIG. 1: Small animal SPECT/CT study in LNCaP xenograft bearing male NSG mice at 2-4 h p.i. […] White arrows indicate the position of the LNCaP xenograft. SPECT/CT images were acquired using an Albira Si PET/SPECT/CT (Bruker Biospin Corporation, Woodbridge, CT, USA) instrument. […] For reconstruction, an ordered subset expectation-maximization algorithm (OSEM) with two iterations was used, and scatter correction was applied. For CT, the following parameters were used: 400 μA intensity and 35 kV voltage, 600 projections. Images were reconstructed using a filtered back-projection (FBP) algorithm with de-ringing correction. Fused representative SPECT/CT images were acquired using the PMOD software (PMOD technologies, version 3.709, Zurich, Switzerland).

PSMA [7] = molecular target: T1, PSMA; conditions: LNCaP cells; reference compounds, assayed under identical conditions (literature cited in table title); # = free mas3-chelator; cited from earlier work
[8] = tendency to associate with plasma proteins

T1 sequence (Q04609 whole entry): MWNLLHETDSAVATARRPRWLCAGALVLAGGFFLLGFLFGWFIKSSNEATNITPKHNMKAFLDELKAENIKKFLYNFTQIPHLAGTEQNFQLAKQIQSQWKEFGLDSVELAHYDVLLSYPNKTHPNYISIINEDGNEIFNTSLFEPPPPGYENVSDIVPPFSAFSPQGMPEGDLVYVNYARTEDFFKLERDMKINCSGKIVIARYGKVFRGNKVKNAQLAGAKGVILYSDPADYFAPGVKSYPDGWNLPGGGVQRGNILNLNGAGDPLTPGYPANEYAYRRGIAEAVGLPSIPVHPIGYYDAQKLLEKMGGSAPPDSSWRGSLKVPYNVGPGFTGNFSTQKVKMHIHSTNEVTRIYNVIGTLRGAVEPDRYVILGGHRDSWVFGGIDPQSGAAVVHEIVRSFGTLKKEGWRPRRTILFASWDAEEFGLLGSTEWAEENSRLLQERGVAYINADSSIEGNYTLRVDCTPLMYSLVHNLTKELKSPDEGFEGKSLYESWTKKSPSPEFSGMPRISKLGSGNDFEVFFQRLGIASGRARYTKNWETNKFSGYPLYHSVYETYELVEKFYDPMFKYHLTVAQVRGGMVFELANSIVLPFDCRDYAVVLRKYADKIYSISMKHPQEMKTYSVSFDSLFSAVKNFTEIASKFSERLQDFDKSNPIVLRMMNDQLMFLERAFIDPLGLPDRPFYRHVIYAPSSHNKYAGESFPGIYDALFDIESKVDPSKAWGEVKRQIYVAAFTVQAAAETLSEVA

reduction in affinity compared to the mono-sulfonated analog Ac-mas3-Cy5(SO3)-EuK (PSMA [3])	IC50 (PSMA [3]; LNCaP cells, free mas3-chelator, novel compounds) [nM]	SMILES	Quantum yield (HSA) [1] [%]	Brightness (HSA) [1] [L/mol/cm]	Molar extinction coefficient free dye (HSA) [1] [L/mol/cm]	brightness compared to PSMA-HSG ([1]; text b242)	tendency to associate with plasma proteins (plasma proteins) [%]	fluorescence signal in the xenografts ([2]; 2 h p.i., ligand dose 1 nmol, in vivo and ex vivo)	detectable fluorescence signal [2]	fraction unbound (Plasma protein binding; Plasma Protein Binding (%))	fraction unbound (Plasma protein binding; [8])	logP [4]	tissue uptake at 6 h [5] [%ID/g]	specificity of tracer uptake in tumor and PSMA-positive tissues [6]	IC50 (PSMA [7]) [nM]
almost eight-fold reduction	131 ± 29	CC(=O)SCC(=O)N[C@H](CO)C(=O)N[C@H](CO)C(=O)N[C@H](CO)C(=O)NCCCCCC(=O)NCCCCN1/C(=C/C=C/C=C/C2=[N+](CCCCCC(=O)NCCCC[C@H](NC(=O)N[C@@H](CCC(=O)O)C(=O)O)C(=O)O)c3ccc(S(=O)(=O)O)cc3C2(C)C)C(C)(C)c2cc(S(=O)(=O)[O-])ccc21 [Ac-mas3-(SO3)Cy5(SO3)-EuK]	16	38900	243000	fivefold lower brightness	77.9	weakest signal	virtually not detectable						
		C[N+]1=C(/C=C/C=C/C=C2/N(CCCCCC(=O)NCCCC[C@@H](NC(=O)[C@@H](CO)NC(=O)[C@@H](CO)NC(=O)[C@@H](CO)NC(=O)CS)C(=O)N[C@H](Cc3ccc(O)cc3)C(=O)N[C@H](Cc3ccc4ccccc4c3)C(=O)N[C@H](CCCCNC(=O)CCCCCCC(=O)NCCCC[C@H](NC(=O)N[C@@H](CCC(=O)O)C(=O)O)C(=O)O)C(=O)O)c3ccc(S(=O)(=O)O)cc3C2(C)C)C(C)(C)c2cc(S(=O)(=O)[O-])ccc21 [[^99mTc]PSMA-HSG, metal not drawn]								0.007	0.006	-2.94	17.1 ± 2.9	PSMA-specific	
		CC(=O)SCC(=O)N[C@H](CO)C(=O)N[C@H](CO)C(=O)N[C@H](CO)C(=O)NCCCCC(=O)NCCCCN1\C(=C/C=C/C=C/C2=[N+](CCCCCC(=O)NCCCC[C@H](NC(=O)N[C@@H](CCC(=O)O)C(=O)O)C(=O)O)c3ccc(S(=O)(=O)[O-])cc3C2(C)C)C(C)(C)c2ccccc21 [Ac-mas3-Cy5(SO3)-EuK]	21	33800	161000				weak		0.028				17.8 ± 2.9
